Experimental data: patent US20210163976A1, “GENETICALLY ALTERED PLANTS EXPRESSING HETEROLOGOUS RECEPTORS THAT RECOGNIZE LIPO-CHITOOLIGOSACCHARIDES” (Aarhus Universitet, priority 2018, published 2021)
Changes are numbered by the printed parent chain. Names and notes keep the numbering of the source.

B1: Q119F: NFP substitution variant outside the hydrophobic patch in LysM2 (protein, UniProt Q0GXS4 28-595, looked up, variant Q119F)
Serine/threonine …: QPLYISETNFTCPVDSPPSCETYVAYRAQSPNFLSLSNISDIFNLSPLRIAKASNIEAEDKKLIPDQLLLVPVTCGCTKNHSFANITYSIKFGDNFFILSITSYQNLTNYLEFKNFNPNLSPTLLPLDTKVSVPLFCKCPSKNQLNKGIKYLITYVWQDNDNVTLVSSKFGASQVEMLAENNHNFTASTNRSVLIPVTSLPKLDQPSSNGRKSSSQNLALIIGISLGSAFFILVLTLSLVYVYCLKMKRLNRSTSSSETADKLLSGVSGYVSKPTMYEIDAIMEGTTNLSDNCKIGESVYKANIDGRVLAVKKIKKDASEELKILQKVNHGNLVKLMGVSSDNDGNCFLVYEYAENGSLEEWLFSESSKTSNSVVSLTWSQRITIAMDVAIGLQYMHEHTYPRIIHRDITTSNILLGSNFKAKIANFGMARTSTNSMMPKIDVFAFGVVLIELLTGKKAMTTKENGEVVILWKDFWKIFDLEGNREERLRKWMDPKLESFYPIDNALSLASLAVNCTADKSLSRPTIAEIVLCLSLLNQPSSEPMLERSLTSGLDAEATHVVTSVIAR
B2: K141E: NFP substitution variant outside the hydrophobic patch in LysM2 (protein, UniProt Q0GXS4 28-595, looked up, variant K141E)
Serine/threonine …: B1 Serine/threonine … with F92Q, K114E
B3: T216F: NFP substitution variant in LysM3 (protein, UniProt Q0GXS4 28-595, looked up, variant T216F)
Serine/threonine …: B1 Serine/threonine … with F92Q, T189F
B4: T150H: NFP substitution variant outside the hydrophobic patch in LysM2 (protein, UniProt Q0GXS4 28-595, looked up, variant T150H)
Serine/threonine …: B1 Serine/threonine … with F92Q, T123H
B5: wild type Nfp gene: wild type Medicago NFP LysM receptor transgene (SEQ ID NO: 1) (protein)
chain: MSAFFLPSSSHALFLVLMLFFLTNISAQPLYISETNFTCPVDSPPSCETYVAYRAQSPNFLSLSNISDIFNLSPLRIAKASNIEAEDKKLIPDQLLLVPVTCGCTKNHSFANITYSIKQGDNFFILSITSYQNLTNYLEFKNFNPNLSPTLLPLDTKVSVPLFCKCPSKNQLNKGIKYLITYVWQDNDNVTLVSSKFGASQVEMLAENNHNFTASTNRSVLIPVTSLPKLDQPSSNGRKSSSQNLALIIGISLGSAFFILVLTLSLVYVYCLKMKRLNRSTSSSETADKLLSGVSGYVSKPTMYEIDAIMEGTTNLSDNCKIGESVYKANIDGRVLAVKKIKKDASEELKILQKVNHGNLVKLMGVSSDNDGNCFLVYEYAENGSLEEWLFSESSKTSNSVVSLTWSQRITIAMDVAIGLQYMHEHTYPRIIHRDITTSNILLGSNFKAKIANFGMARTSTNSMMPKIDVFAFGVVLIELLTGKKAMTTKENGEVVILWKDFWKIFDLEGNREERLRKWMDPKLESFYPIDNALSLASLAVNCTADKSLSRPTIAEIVLCLSLLNQPSSEPMLERSLTSGLDAEATHVVTSVIAR
B6: NFP L147D L154D: double-mutated NFP, leucine residues L147 and L154 replaced with aspartate (protein, UniProt Q0GXS4 28-246, looked up, variant L147D L154D)
extracellular domain: QPLYISETNFTCPVDSPPSCETYVAYRAQSPNFLSLSNISDIFNLSPLRIAKASNIEAEDKKLIPDQLLLVPVTCGCTKNHSFANITYSIKQGDNFFILSITSYQNLTNYLEFKNFNPNDSPTLLPDDTKVSVPLFCKCPSKNQLNKGIKYLITYVWQDNDNVTLVSSKFGASQVEMLAENNHNFTASTNRSVLIPVTSLPKLDQPSSNGRKSSSQNLA
modifications: extracellular domain
notes: double-mutated NFP, leucine residues L147 and L154 replaced with aspartate

tested on: Medicago nfp mutants; assay: Complementation assay (nodulation) by hairy root transformation; format: in vivo; conditions: 49 days after inoculation with S. meliloti strain 1021, FIG. 6A
Description: Complementation assay: Construct assembly, plant growth conditions, hairy root transformations, nodulation and ROS assays were generally conducted as described in Bozsoki et al. (2017) (Bozsoki Z, Cheng J, Feng F, Gysel K, Vinther M, Andersen KR, Oldroyd G, Blaise M, Radutoiu S, Stougaard J (2017) Receptor-mediated chitin perception in legume roots is functionally separable from Nod factor perception. Proc Natl Acad Sci 114: E8118-E8127). The tested transgenes were the mutated LysM receptors described in Example 5. In addition, NFP substitution variants replacing residues outside the hydrophobic patch in LysM2 (Q119F, K141E and T150H) or in LysM3 (T216F) were tested.

Molecule | nodules per plant (complementation)
B1 | did not affect nodulation
B2 | did not affect nodulation
B3 | did not affect nodulation
B4 | did not affect nodulation
B5 | 5 nodules per plant
B6 | did not develop any nodules

same assay, conditions: S. medicae inoculation, 28 dpi, FIG. 6B

Molecule | complementation (nodulation)
B6 | complements poorly
